Data published in patent US20140363428A1 (Chugai, published 2014).

B1: F1714 (antibody)
heavy: QVQLQESGPGLVKPSETLSLTCAVSGHSISHDHAWSWVRQPPGEGLEWIGFISYSGITNYNPSLQGRVTISRDNSKNTLYLQMNSLRAEDTAVYYCARSLARTTAMDYWGEGTLVTVSSASTKGPSVFPLAPSSKSTSGGTAALGCLVKDYFPEPVTVSWNSGALTSGVHTFPAVLQSSGLYSLSSVVTVPSSSLGTQTYICNVNHKPSNTKVDKKVEPKSCDKTHTCPPCPAPELRGGPKVFLFPPKPKDTLMISRTPEVTCVVVDVSHEDPEVKFNWYVDGVEVHNAKTKPREEQYNSTYRVVSVLTVLHQDWLNGKEYKCKVSNKALPAPIEKTISKAKGQPREPQVYTLPPSRDELTKNQVSLTCLVKGFYPSDIAVEWESNGQPENNYKTTPPVLDSDGSFFLYSKLTVDKSRWQQGNVFSCSVMHEALDYHVTRKELSLSP
light: DIQMTQSPSSLSASVGDSVTITCQASTDISSHLNWYQQKPGKAPELLIYYGSHLLSGVPSRFSGSGSGTDFTFTISSLEAEDAATYYCGQGNRLPYTFGQGTKVEIERTVAAPSVFIFPPSDEQLKSGTASVVCLLNNFYPREAKVQWKVDNALQSGNSQESVTEQDSKDSTYSLSSTLTLSKADYEKHKVYACEVTHQGLSSPVTKSFNRGEC
B2: F1716 (antibody)
heavy: QVQLQESGPGLVKPSETLSLTCAVSGHSISHDHAWSWVRQPPGEGLEWIGFISYSGITNYNPSLQGRVTISRDNSKNTLYLQMNSLRAEDTAVYYCARSLARTTAMDYWGEGTLVTVSSASTKGPSVFPLAPSSKSTSGGTAALGCLVKDYFPEPVTVSWNSGALTSGVHTFPAVLQSSGLYSLSSVVTVPSSSLGTQTYICNVNHKPSNTKVDKKVEPKSCDKTHTCPPCPAPELRGGPKVFLFPPKPKDTLMISRTPEVTCVVVDVSHEDPEVKFNWYVDGVEVHNAKTKPREEQYNSTYRVVSVLTVLHQDWLNGKEYKCKVSNKALPAPIEKTISKAKGQPREPQVYTLPPSRDELTKNQVSLTCLVKGFYPSDIAVEWESNGQPENNYKTTPPVLDSDGSFFLYSKLTVDKSRWQQGNVFSCSVMHEALDYHVTKKELSLSP
light: DIQMTQSPSSLSASVGDSVTITCQASTDISSHLNWYQQKPGKAPELLIYYGSHLLSGVPSRFSGSGSGTDFTFTISSLEAEDAATYYCGQGNRLPYTFGQGTKVEIERTVAAPSVFIFPPSDEQLKSGTASVVCLLNNFYPREAKVQWKVDNALQSGNSQESVTEQDSKDSTYSLSSTLTLSKADYEKHKVYACEVTHQGLSSPVTKSFNRGEC
B3: F1719 (antibody)
heavy: QVQLQESGPGLVKPSETLSLTCAVSGHSISHDHAWSWVRQPPGEGLEWIGFISYSGITNYNPSLQGRVTISRDNSKNTLYLQMNSLRAEDTAVYYCARSLARTTAMDYWGEGTLVTVSSASTKGPSVFPLAPSSKSTSGGTAALGCLVKDYFPEPVTVSWNSGALTSGVHTFPAVLQSSGLYSLSSVVTVPSSSLGTQTYICNVNHKPSNTKVDKKVEPKSCDKTHTCPPCPAPELLGGPSVFLFPPKPKDTLMISRTPEVTCVVVDVSHEDPEVKFNWYVDGVEVHNAKTKPREEQYNSTYRVVSVLTVLHQDWLNGKEYKCKVSNKALPAPIEKTISKAKGQPREPQVYTLPPSRDELTKNQVSLTCLVKGFYPSDIAVEWESNGQPENNYKTTPPVLDSDGSFFLYSKLTVDKSRWQQGNVFSCSVMHEALHYHVTRKDLSLSP
light: DIQMTQSPSSLSASVGDSVTITCQASTDISSHLNWYQQKPGKAPELLIYYGSHLLSGVPSRFSGSGSGTDFTFTISSLEAEDAATYYCGQGNRLPYTFGQGTKVEIERTVAAPSVFIFPPSDEQLKSGTASVVCLLNNFYPREAKVQWKVDNALQSGNSQESVTEQDSKDSTYSLSSTLTLSKADYEKHKVYACEVTHQGLSSPVTKSFNRGEC
B4: F1725 (antibody)
heavy: QVQLQESGPGLVKPSETLSLTCAVSGHSISHDHAWSWVRQPPGEGLEWIGFISYSGITNYNPSLQGRVTISRDNSKNTLYLQMNSLRAEDTAVYYCARSLARTTAMDYWGEGTLVTVSSASTKGPSVFPLAPSSKSTSGGTAALGCLVKDYFPEPVTVSWNSGALTSGVHTFPAVLQSSGLYSLSSVVTVPSSSLGTQTYICNVNHKPSNTKVDKKVEPKSCDKTHTCPPCPAPELLGGPSVFLFPPKPKDTLMISRTPEVTCVVVDVSHEDPEVKFNWYVDGVEVHNAKTKPREEQYNSTYRVVSVLTVLHQDWLNGKEYKCKVSNKALPAPIEKTISKAKGQPREPQVYTLPPSRDELTKNQVSLTCLVKGFYPSDIAVEWESNGQPENNYKTTPPVLDSDGSFFLYSKLTVDKSRWQQGNVFSCSVMHEALDYHVTKKDLSLSP
light: DIQMTQSPSSLSASVGDSVTITCQASTDISSHLNWYQQKPGKAPELLIYYGSHLLSGVPSRFSGSGSGTDFTFTISSLEAEDAATYYCGQGNRLPYTFGQGTKVEIERTVAAPSVFIFPPSDEQLKSGTASVVCLLNNFYPREAKVQWKVDNALQSGNSQESVTEQDSKDSTYSLSSTLTLSKADYEKHKVYACEVTHQGLSSPVTKSFNRGEC
B5: F1720 (antibody)
heavy: QVQLQESGPGLVKPSETLSLTCAVSGHSISHDHAWSWVRQPPGEGLEWIGFISYSGITNYNPSLQGRVTISRDNSKNTLYLQMNSLRAEDTAVYYCARSLARTTAMDYWGEGTLVTVSSASTKGPSVFPLAPSSKSTSGGTAALGCLVKDYFPEPVTVSWNSGALTSGVHTFPAVLQSSGLYSLSSVVTVPSSSLGTQTYICNVNHKPSNTKVDKKVEPKSCDKTHTCPPCPAPELLGGPSVFLFPPKPKDTLMISRTPEVTCVVVDVSHEDPEVKFNWYVDGVEVHNAKTKPREEQYNSTYRVVSVLTVLHQDWLNGKEYKCKVSNKALPAPIEKTISKAKGQPREPQVYTLPPSRDELTKNQVSLTCLVKGFYPSDIAVEWESNGQPENNYKTTPPVLDSDGSFFLYSKLTVDKSRWQQGNVFSCSVMHEALHYHVTKKELSLSP
light: DIQMTQSPSSLSASVGDSVTITCQASTDISSHLNWYQQKPGKAPELLIYYGSHLLSGVPSRFSGSGSGTDFTFTISSLEAEDAATYYCGQGNRLPYTFGQGTKVEIERTVAAPSVFIFPPSDEQLKSGTASVVCLLNNFYPREAKVQWKVDNALQSGNSQESVTEQDSKDSTYSLSSTLTLSKADYEKHKVYACEVTHQGLSSPVTKSFNRGEC
B6: F1724 (antibody)
heavy: QVQLQESGPGLVKPSETLSLTCAVSGHSISHDHAWSWVRQPPGEGLEWIGFISYSGITNYNPSLQGRVTISRDNSKNTLYLQMNSLRAEDTAVYYCARSLARTTAMDYWGEGTLVTVSSASTKGPSVFPLAPSSKSTSGGTAALGCLVKDYFPEPVTVSWNSGALTSGVHTFPAVLQSSGLYSLSSVVTVPSSSLGTQTYICNVNHKPSNTKVDKKVEPKSCDKTHTCPPCPAPELLGGPSVFLFPPKPKDTLMISRTPEVTCVVVDVSHEDPEVKFNWYVDGVEVHNAKTKPREEQYNSTYRVVSVLTVLHQDWLNGKEYKCKVSNKALPAPIEKTISKAKGQPREPQVYTLPPSRDELTKNQVSLTCLVKGFYPSDIAVEWESNGQPENNYKTTPPVLDSDGSFFLYSKLTVDKSRWQQGNVFSCSVMHEALDYHVTKKELSLSP
light: DIQMTQSPSSLSASVGDSVTITCQASTDISSHLNWYQQKPGKAPELLIYYGSHLLSGVPSRFSGSGSGTDFTFTISSLEAEDAATYYCGQGNRLPYTFGQGTKVEIERTVAAPSVFIFPPSDEQLKSGTASVVCLLNNFYPREAKVQWKVDNALQSGNSQESVTEQDSKDSTYSLSSTLTLSKADYEKHKVYACEVTHQGLSSPVTKSFNRGEC
B7: F1715 (antibody)
heavy: QVQLQESGPGLVKPSETLSLTCAVSGHSISHDHAWSWVRQPPGEGLEWIGFISYSGITNYNPSLQGRVTISRDNSKNTLYLQMNSLRAEDTAVYYCARSLARTTAMDYWGEGTLVTVSSASTKGPSVFPLAPSSKSTSGGTAALGCLVKDYFPEPVTVSWNSGALTSGVHTFPAVLQSSGLYSLSSVVTVPSSSLGTQTYICNVNHKPSNTKVDKKVEPKSCDKTHTCPPCPAPELRGGPKVFLFPPKPKDTLMISRTPEVTCVVVDVSHEDPEVKFNWYVDGVEVHNAKTKPREEQYNSTYRVVSVLTVLHQDWLNGKEYKCKVSNKALPAPIEKTISKAKGQPREPQVYTLPPSRDELTKNQVSLTCLVKGFYPSDIAVEWESNGQPENNYKTTPPVLDSDGSFFLYSKLTVDKSRWQQGNVFSCSVMHEALDYHVTRKDLSLSP
light: DIQMTQSPSSLSASVGDSVTITCQASTDISSHLNWYQQKPGKAPELLIYYGSHLLSGVPSRFSGSGSGTDFTFTISSLEAEDAATYYCGQGNRLPYTFGQGTKVEIERTVAAPSVFIFPPSDEQLKSGTASVVCLLNNFYPREAKVQWKVDNALQSGNSQESVTEQDSKDSTYSLSSTLTLSKADYEKHKVYACEVTHQGLSSPVTKSFNRGEC
B8: F1723 (antibody)
heavy: QVQLQESGPGLVKPSETLSLTCAVSGHSISHDHAWSWVRQPPGEGLEWIGFISYSGITNYNPSLQGRVTISRDNSKNTLYLQMNSLRAEDTAVYYCARSLARTTAMDYWGEGTLVTVSSASTKGPSVFPLAPSSKSTSGGTAALGCLVKDYFPEPVTVSWNSGALTSGVHTFPAVLQSSGLYSLSSVVTVPSSSLGTQTYICNVNHKPSNTKVDKKVEPKSCDKTHTCPPCPAPELLGGPSVFLFPPKPKDTLMISRTPEVTCVVVDVSHEDPEVKFNWYVDGVEVHNAKTKPREEQYNSTYRVVSVLTVLHQDWLNGKEYKCKVSNKALPAPIEKTISKAKGQPREPQVYTLPPSRDELTKNQVSLTCLVKGFYPSDIAVEWESNGQPENNYKTTPPVLDSDGSFFLYSKLTVDKSRWQQGNVFSCSVMHEALDYHVTRKDLSLSP
light: DIQMTQSPSSLSASVGDSVTITCQASTDISSHLNWYQQKPGKAPELLIYYGSHLLSGVPSRFSGSGSGTDFTFTISSLEAEDAATYYCGQGNRLPYTFGQGTKVEIERTVAAPSVFIFPPSDEQLKSGTASVVCLLNNFYPREAKVQWKVDNALQSGNSQESVTEQDSKDSTYSLSSTLTLSKADYEKHKVYACEVTHQGLSSPVTKSFNRGEC
B9: F1718 (antibody)
heavy: QVQLQESGPGLVKPSETLSLTCAVSGHSISHDHAWSWVRQPPGEGLEWIGFISYSGITNYNPSLQGRVTISRDNSKNTLYLQMNSLRAEDTAVYYCARSLARTTAMDYWGEGTLVTVSSASTKGPSVFPLAPSSKSTSGGTAALGCLVKDYFPEPVTVSWNSGALTSGVHTFPAVLQSSGLYSLSSVVTVPSSSLGTQTYICNVNHKPSNTKVDKKVEPKSCDKTHTCPPCPAPELLGGPSVFLFPPKPKDTLMISRTPEVTCVVVDVSHEDPEVKFNWYVDGVEVHNAKTKPREEQYNSTYRVVSVLTVLHQDWLNGKEYKCKVSNKALPAPIEKTISKAKGQPREPQVYTLPPSRDELTKNQVSLTCLVKGFYPSDIAVEWESNGQPENNYKTTPPVLDSDGSFFLYSKLTVDKSRWQQGNVFSCSVMHEALHYHVTRKELSLSP
light: DIQMTQSPSSLSASVGDSVTITCQASTDISSHLNWYQQKPGKAPELLIYYGSHLLSGVPSRFSGSGSGTDFTFTISSLEAEDAATYYCGQGNRLPYTFGQGTKVEIERTVAAPSVFIFPPSDEQLKSGTASVVCLLNNFYPREAKVQWKVDNALQSGNSQESVTEQDSKDSTYSLSSTLTLSKADYEKHKVYACEVTHQGLSSPVTKSFNRGEC
notes: S440F as printed

Molecular target: T1, soluble human FcRn (human, UniProt P55899 24-297; P61769 21-119)
T1 construct: Heterodimer of alpha chain and beta2-microglobulin; also called hFcRn
T1 sequence (P55899 24-297 limits assumed, chain 1 of 2): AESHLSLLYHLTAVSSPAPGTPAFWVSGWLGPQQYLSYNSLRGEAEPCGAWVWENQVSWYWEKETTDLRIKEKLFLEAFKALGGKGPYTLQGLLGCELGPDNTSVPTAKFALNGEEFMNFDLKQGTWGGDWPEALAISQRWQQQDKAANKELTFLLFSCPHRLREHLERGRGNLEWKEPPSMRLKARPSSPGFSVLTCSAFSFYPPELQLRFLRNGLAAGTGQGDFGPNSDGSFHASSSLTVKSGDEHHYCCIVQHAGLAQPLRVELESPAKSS
T1 sequence (P61769 21-119 limits assumed, chain 2 of 2): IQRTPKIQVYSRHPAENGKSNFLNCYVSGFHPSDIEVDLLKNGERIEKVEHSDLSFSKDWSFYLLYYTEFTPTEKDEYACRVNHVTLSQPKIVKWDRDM
Test: SPR (Biacore), pH 6.0

In order of rising Kd:
1. B5  45 nM
2. B3  52 nM
3. B9  61 nM
4. B4  93 nM
5. B2  96 nM
6. B8  96 nM
7. B6  99 nM
8. B1  110 nM
9. B7  110 nM
